Experimental data taken from patent publication US20170088602A1 (Bristol-Myers Squibb, published 2017).

T1: human BMP-11 (GDF-11; R&D Systems) (human, UniProt O95390 299-407)
T1 sequence (looked up): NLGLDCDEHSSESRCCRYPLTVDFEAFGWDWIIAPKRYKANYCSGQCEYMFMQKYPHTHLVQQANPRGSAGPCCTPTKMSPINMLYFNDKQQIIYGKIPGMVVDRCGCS

T2: human myostatin (mature, recombinant; R&D Systems) (human, UniProt O14793 267-375)
T2 sequence: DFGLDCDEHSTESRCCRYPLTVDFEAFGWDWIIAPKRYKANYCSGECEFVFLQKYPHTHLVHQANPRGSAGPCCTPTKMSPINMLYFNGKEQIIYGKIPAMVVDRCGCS

T3: human Activin A (R&D Systems) (human, UniProt P08476 311-426)
T3 sequence (looked up): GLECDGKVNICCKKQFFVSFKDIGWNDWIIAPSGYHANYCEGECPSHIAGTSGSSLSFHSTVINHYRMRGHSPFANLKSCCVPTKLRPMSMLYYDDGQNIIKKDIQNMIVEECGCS


Assays:
[1] = biological target: T1, human BMP-11 (GDF-11; R&D Systems); experiment: cell-based or functional assay
[2] = biological target: T2, human myostatin (mature, recombinant; …); experiment: cell-based or functional assay
[3] = biological target: T3, human Activin A (R&D Systems); experiment: cell-based or functional assay
[4] = biological target: T2, human myostatin (mature, recombinant; …); experiment: competitive HTRF (1889E01/myostatin/ActRIIb-Fc sandwich)
Source text: An HTRF assay was used to measure the binding affinities of anti-myostatin Adnectins to myostatin. […] The Eu-W 1024 labeled Streptavidin is used to bind biotinylated 1889E01. […] In the presence of a competitive Adnectin, the HTRF signal decreases.

[5] = biological target: T2, human myostatin (mature, recombinant; …); experiment: cell-based or functional assay; remark: listed apart in the source

| Binder | ARE-luciferase IC50 [1] | ARE-luciferase IC50 [2] | ARE-luciferase IC50 [3] | IC50 [4] | pSmad2 % inhibition at 10 nM [5] | pSmad2 IC50, 4-point [5] |
| --- | --- | --- | --- | --- | --- | --- |
| 2987_B04 (designed binder) MGVSDVPRDLEVVAATPTSLLISWSLPYPGHLNYYRITYGETGGNSPVQEFTVPGRGVTATISGLKPGVDYTITVYAVTLTKSKIIHYMPISINYRTEIDKPSQHHHHHH | 3.3 nM | 0.12 nM | 239 nM | – | – | – |
| 2987_E03 (designed binder) MGVSDVPRDLEVVAATPTSLLISWSLPYPGHLNYYRITYGETGGNSPVQEFTVPGRGVTATISGLKPGVDYTITVYAVTLTRSKIIHYMPISINYRTEIDKPSQHHHHHH | 2.3 nM | 0.1 nM | 224 nM | – | – | – |
| 2987_B09 (designed binder) MGVSDVPRDLEVVAATPTSLLISWTLPHAGRAHYYRITYGETGGNSPVQEFTVPGRGVTATISGLKPGVDYTITVYAVTLTRSKIIHYMPISINYRTEIDKPSQHHHHHH | 0.92 nM | 0.01 nM | 172 nM | – | – | – |
| 3007_B08 (designed binder) MGVSDVPRDLEVVAATPTSLLISWSLPTPGLAHYYRITYGETGGNSPVQEFTVPGRGVTATISGLKPGVDYTITVYAVTVTHHGVIGYKPISINYRTEIDKPSQHHHHHH | 0.23 nM | 0.06 nM | 423 nM | 0.14 nM | 97% | – |
| 2987_A06 (designed binder) MGVSDVPRDLEVVAATPTSLLISWSLPHAGHAHYYRITYGETGGNSPVQEFTVPGRGVTATISGLKPGVDYTITVYAVTLTKSKIIHYMPISINYRTEIDKPSQHHHHHH | 23 nM | 0.1 nM | 283 nM | – | – | – |
| 2987_F06 (designed binder) MGVSDVPRDLEVVAATPTSLLISWSLPHAGHAHYYRITYGETGGNSPVQEFTVPGRGVTATISGLKPGVDYTITVYAVTLTKSKVIHYMPISINYRTEIDKPSQHHHHHH | 20 nM | 0.08 nM | 538 nM | – | – | – |
| 2987_E08 (designed binder) MGVSDVPRDLEVVAATPTSLLISWTLPHAGRAHYYRITYGETGGNSPVQEFTVPGRGVTATISGLKPGVDYTITVYAVTVSSTKVIHYKPISINYRTEIDKPSQHHHHHH | 2.8 nM | 0.05 nM | 352 nM | – | – | – |
| 2987_H02 (designed binder) MGVSDVPRDLEVVAATPTSLLISWSLPYAGHAHYYRITYGETGGNSPVQEFTVPGRGVTATISGLKPGVDYTITVYAVTLTKSKVIHYMPISINYRTEIDKPSQHHHHHH | 11 nM | 0.05 nM | 794 nM | – | – | – |
| 2987_G04 (designed binder) MGVSDVPRDLEVVAATPTSLLISWSLPYPGHLNYYRITYGETGGNSPVQEFTVPGRGVTATISGLKPGVDYTITVYAVTLTKSKVIHYMPISINYRTEIDKPSQHHHHHH | 3.3 nM | 0.09 nM | 171 nM | – | – | – |
| 2987_G09 (designed binder) MGVSDVPRDLEVVAATPTSLLISWTLPHAGRAHYYRITYGETGGNSPVQEFTVPGRGVTATISGLKPGVDYTITVYAVTVSSTKVIVYLPISINYRTEIDKPSQHHHHHH | 0.91 nM | 0.05 nM | > 2000 nM | – | – | – |
| 2987_D05 (designed binder) MGVSDVPRDLEVVAATPTSLLISWSLPHAGHAHYYRITYGETGGNSPVQEFTVPGRGVTATISGLKPGVDYTITVYAVTLTRSKIIHYMPISINYRTEIDKPSQHHHHHH | 2.4 nM | 0.11 nM | 2000 nM | – | – | – |
| 2987_F01 (designed binder) MGVSDVPRDLEVVAATPTSLLISWSLPYAGHAHYYRITYGETGGNSPVQEFTVPGRGVTATISGLKPGVDYTITVYAVTLTRSKIIHYMPISINYRTEIDKPSQHHHHHH | 6.5 nM | 0.05 nM | 594 nM | – | – | – |
| 2987_C02 (designed binder) MGVSDVPRDLEVVAATPTSLLISWSLPYAGHAHYYRITYGETGGNSPVQEFTVPGRGVTATISGLKPGVDYTITVYAVTLTKSKIIHYMPISINYRTEIDKPSQHHHHHH | 7.1 nM | 0.06 nM | 464 nM | – | – | – |
| 3007_C09 (designed binder) MGVSDVPRDLEVVAATPTSLLISWSLPHRGVANYYRITYGETGGNSPVQEFTVPGRGVTATISGLKPGVDYTITVYAVTLTGANVIIYKPISINYRTEIDKPSQHHHHHH | 0.89 nM | 0.04 nM | 417 nM | 0.14 nM | 80% | – |

More lines, now with the values ahead:

| ARE-luciferase IC50 [1] | ARE-luciferase IC50 [2] | ARE-luciferase IC50 [3] | IC50 [4] | pSmad2 % inhibition at 10 nM [5] | pSmad2 IC50, 4-point [5] | Binder |
| --- | --- | --- | --- | --- | --- | --- |
| 4.87 nM | 0.05 nM | 324 nM | 0.16 nM | – | – | ATI-1340 [N-ethylmaleimide] (designed binder, N-ethylmaleimide on the Cys of the EGSGC tail, cysteine mutant of 2987_H07) MGVSDVPRDLEVVAATPTSLLISWTLPHAGRAHYYRITYGETGGNSPVQEFTVPGRGVTATISGLKPGVDYTITVYAVTVTTTKVIHYKPISINYRTEGSGCHHHHHH |
| 6.7 nM | 0.1 nM | 1000 nM | 0.35 nM | – | 0.26 nM | 3116_C01 (designed binder) MGVSDVPRDLEVVAATPTSLLISWSLPNPGIAHYYRITYGETGGNSPVQEFTVPGRGVTATISGLKPGVDYTITVYAVTLTGSDTIFYKPISINYRTEIDKPSQHHHHHH |
| 8.9 nM | 0.14 nM | > 1000 nM | 0.18 nM | – | 0.73 nM | 3116_C06 (designed binder) MGVSDVPRDLEVVAATPTSLLISWSLPRPGNAHYYRITYGETGGNSPVQEFTVPGRGVTATISGLKPGVDYTITVYAVTVTGKDVIKYKPISINYRTEIDKPSQHHHHHH |
| 0.12 nM | 0.08 nM | > 2000 nM | 0.21 nM | 86% | – | 3008_F01 (designed binder) MGVSDVPRDLEVVAATPTSLLISWSLPRQGLANYYRITYGETGGNSPVQEFTVPGRGVTATISGLKPGVDYTITVYAVTVTAAGVIIYKPISINYRTEIDKPSQHHHHHH |
| 9.3 nM | 0.35 nM | 254 nM | 0.37 nM | 90% | – | 3008_B08 (designed binder) MGVSDVPRDLEVVAATPTSLLISWSLPHAGDAHYYRITYGETGGNSPVQEFTVPGRGVTATISGLKPGVDYTITVYAVTVTRAGFYRYKPISINYRTEIDKPSQHHHHHH |
| 1 nM | 0.03 nM | > 2000 nM | 0.14 nM | 76% | – | 3007_C10 (designed binder) MGVSDVPRDLEVVAATPTSLLISWSLPSSGVAHYYRITYGETGGNSPVQEFTVPGRGVTATISGLKPGVDYTITVYAVTVTNTGVIIYKPISINYRTEIDKPSQHHHHHH |
| 1.3 nM | 0.09 nM | > 2000 nM | 0.13 nM | 91% | – | 3008_G03 (designed binder) MGVSDVPRDLEVVAATPTSLLISWSLPHPGLGHYYRITYGETGGNSPVQEFTVPGRGVTATISGLKPGVDYTITVYAVTITPETIIVYKPISINYRTEIDKPSQHHHHHH |
| 1.2 nM | 0.09 nM | 720 nM | 0.14 nM | 92% | – | 3008_D04 (designed binder) MGVSDVPRDLEVVAATPTSLLISWSLPHNGVAHYYRITYGETGGNSPVQEFTVPGRGVTATISGLKPGVDYTITVYAVTVTREEVISYKPISINYRTEIDKPSQHHHHHH |
| 22.6 nM | 0.11 nM | > 2000 nM | 0.22 nM | 87% | – | 3008_A03 (designed binder) MGVSDVPRDLEVVAATPTSLLISWSLPHHGFGHYYRITYGETGGNSPVQEFTVPGRGVTATISGLKPGVDYTITVYAVTVTATGIIIYKPISINYRTEIDKPSQHHHHHH |
| 0.31 nM | 0.03 nM | > 2000 nM | 0.11 nM | 98% | – | 3008_G01 (designed binder) MGVSDVPRDLEVVAATPTSLLISWSLPGPGHFHYYRITYGETGGNSPVQEFTVPGRGVTATISGLKPGVDYTITVYAVTVTANQPIIYKPISINYRTEIDKPSQHHHHHH |
